Where no end group is shown, it is not given here.
B1: ATL_0006184 (antibody, V domains shown)
VH: EVQLVESGGGLVKPGGSLRLSCAASGFTFNKAWMSWVRQAPGKGLEWVGRIKSGIDAGTTDYAAPVKGRFTISRDDSKATLYLQMNSLKTEDTAVYYCTPPPYYYYGLDVWGQGTTVTVSS
VL: QSALTQPASVSGSPGQSITISCTGTSSDVGGYKLVSWYQQHPGRAPKLMIYEVSKRPSGVSSRFSGSKSGSTASLTISGLQAEDEADYYCSSYAGSSVVFGGGTKLTVL
notes: HD patient (ENBB) HCDR3 in ATL5901 VH, ATL5901 VL; also called ATL_6184; ATL6184
B2: ATL_0006186 (antibody, V domains shown)
VH: EVQLVESGGGLVKPGGSLRLSCAASGFTFNKAWMSWVRQAPGKGLEWVGRIKSGIDAGTTDYAAPVKGRFTISRDDSKATLYLQMNSLKTEDTAVYYCTPPPYYYYGLNVWGQGTTVTVSS
VL: QSALTQPASVSGSPGQSITISCTGTSSDVGGYKLVSWYQQHPGRAPKLMIYEVSKRPSGVSSRFSGSKSGSTASLTISGLQAEDEADYYCSSYAGSSVVFGGGTKLTVL
notes: HD patient (ENBB) HCDR3 in ATL5901 VH, ATL5901 VL; also called ATL_6186; ATL6186
B3: ATL_0006195 (antibody, V domains shown)
VH: EVQLVESGGGLVKPGGSLRLSCAASGFTFNKAWMSWVRQAPGKGLEWVGRIKSGIDAGTTDYAAPVKGRFTISRDDSKNTLYLQMNSLKTEDTAVYYCTPPPYYYYYGLDVWGQGTTVTVSS
VL: QSALTQPRSVSGSPGQSVTISCTGTSSDVGSYNLVSWYQQHPGKAPKLMIYEVNKRPSGVPDRFSGSKSGATASLTISGLQAEDEADYYCGSYAGTANVFGTGTKVTVL
notes: expressed in IgG1 format; also called ATL_6195
B4: ATL_0005334 (antibody, V domains shown)
VH: EVQLVESGGGLVKPGGSLRLSCAASGFTFNKAWMNWVRQAPGKGLEWVGRIKSGIDGGTTDYAAPVQGRFTISRDDSKNTVYLQMNSLNTEDTAVYYCIPPPYYYYYGLDVWGQGTTVTVSS
VL: QSALTQPASVSGSPGQSITISCTGTSSDVGGYKLVSWYQQHPGRAPKLMIYEVSKRPSGVSSRFSGSKSGSTASLTISGLQAEDEADYYCCSYAGSSVVFGGGTKLTVL
notes: human IgG1; also called ATL_5334
B5: ATL_0006183 (antibody, V domains shown)
VH: EVQLVESGGGLVKPGGSLRLSCAASGFTFNKAWMSWVRQAPGKGLEWVGRIKSGIDAGTTDYAAPVKGRFTISRDDSKNTLYLQMNSLKTEDTAVYYCTPPPYYYYGLDVWGQGTTVTVSS
VL: QSALTQPRSVSGSPGQSVTISCTGTSSDVGSYNLVSWYQQHPGKAPKLMIYEVNKRPSGVPDRFSGSKSGATASLTISGLQAEDEADYYCGSYAGTANVFGTGTKVTVL
notes: HD patient (ENBB) HCDR3 in ATL5895 VH, ATL5895 VL; also called ATL_6183; ATL6183
B6: ATL_0006194 (antibody, V domains shown)
VH: EVQLVESGGGLVKPGGSLRLSCAASGFTFNKAWMSWVRQAPGKGLEWVGRIKSGIDAGTTDYAAPVKGRFTISRDDSKNTLYLQMNSLKTEDTAVYYCVPPPYYYYYGLDVWGQGTTVTVSS
VL: QSALTQPRSVSGSPGQSVTISCTGTSSDVGSYNLVSWYQQHPGKAPKLMIYEVNKRPSGVPDRFSGSKSGATASLTISGLQAEDEADYYCVSYAGTANVFGTGTKVTVL
notes: expressed in IgG1 format; also called ATL_6194; ATL6194
B7: ATL_0006375 (antibody, V domains shown)
VH: EVQLVESGGGLVKPGGSLRLSCAASGFTFNKAWMSWVRQAPGKGLEWVGRIKSGIDAGTTDYAAPVKGRFTISRDDSKNTLYLQMNSLKTEDTAVYYCVPPPYYYYYGLDVWGQGTTVTVSS
VL: QSALTQPRSVSGSPGQSVTISCTGTSSDVGSYNLVSWYQQHPGKAPKLMIYEVNKRPSGVPDRFSGSKSGATASLTISGLQAEDEADYYCVSYGGTENVFGTGTKVTVL
notes: also called ATL_6375
B8: ATL_0006378 (antibody, V domains shown)
VH: EVQLVESGGGLVKPGGSLRLSCAASGFTFNKAWMSWVRQAPGKGLEWVGRIKSGIDAGTTDYAAPVKGRFTISRDDSKNTLYLQMNSLKTEDTAVYYCVPSPYYYYYGLDVWGQGTTVTVSS
VL: QSALTQPRSVSGSPGQSVTISCTGTSSDVGSYNLVSWYQQHPGKAPKLMIYEVNKRPSGVPDRFSGSKSGATASLTISGLQAEDEADYYCVSYGGTENVFGTGTKVTVL
notes: also called ATL_6378; ATL 6378
B9: ATL_0006203 (antibody, V domains shown)
VH: EVQLVESGGGLVKPGGSLRLSCAASGFTFNKAWMSWVRQAPGKGLEWVGRIKSGIDAGTTDYAAPVKGRFTISRDDSKNTLYLQMNSLKTEDTAVYYCIPSPYYYYYGLDVWGQGTTVTVSS
VL: QSALTQPRSVSGSPGQSVTISCTGTSSDVGSYNLVSWYQQHPGKAPKLMIYEVNKRPSGVPDRFSGSKSGATASLTISGLQAEDEADYYCVSYAGTANVFGTGTKVTVL
notes: expressed in IgG1 format; also called ATL_6203
B10: ATL_0006377 (antibody, V domains shown)
VH: EVQLVESGGGLVKPGGSLRLSCAASGFTFNKAWMSWVRQAPGKGLEWVGRIKSGIDAGTTDYAAPVKGRFTISRDDSKNTLYLQMNSLKTEDTAVYYCVPSPYYYYYGLDVWGQGTTVTVSS
VL: QSALTQPRSVSGSPGQSVTISCTGTSSDVGSYNLVSWYQQHPGKAPKLMIYEVNKRPSGVPDRFSGSKSGATASLTISGLQAEDEADYYCVSYAGTANVFGTGTKVTVL
notes: also called ATL_6377
B11: ATL_0006202 (antibody, IgG1, V domains shown)
VH: EVQLVESGGGLVKPGGSLRLSCAASGFTFNKAWMSWVRQAPGKGLEWVGRIKSGIDAGTTDYAAPVKGRFTISRDDSKNTLYLQMNSLKTEDTAVYYCSPPPFYYYYGLDVWGQGTTVTVSS
VL: QSALTQPRSVSGSPGQSVTISCTGTSSDVGSYNLVSWYQQHPGKAPKLMIYEVNKRPSGVPDRFSGSKSGATASLTISGLQAEDEADYYCVSYGGTENVFGTGTKVTVL
notes: IgG1 format; also called ATL_6202
B12: ATL_0006185 (antibody, V domains shown)
VH: EVQLVESGGGLVKPGGSLRLSCAASGFTFNKAWMSWVRQAPGKGLEWVGRIKSGIDAGTTDYAAPVKGRFTISRDDSKNTLYLQMNSLKTEDTAVYYCTPPPYYYYGLNVWGQGTTVTVSS
VL: QSALTQPRSVSGSPGQSVTISCTGTSSDVGSYNLVSWYQQHPGKAPKLMIYEVNKRPSGVPDRFSGSKSGATASLTISGLQAEDEADYYCGSYAGTANVFGTGTKVTVL
notes: HD patient (ENBB) HCDR3 in ATL5895 VH, ATL5895 VL; also called ATL_6185; ATL6185
B13: ATL_0006205 (antibody, IgG1, V domains shown)
VH: EVQLVESGGGLVKPGGSLRLSCAASGFTFNKAWMSWVRQAPGKGLEWVGRIKSGIDAGTTDYAAPVKGRFTISRDDSKNTLYLQMNSLKTEDTAVYWCVPPPYYYYYGLDVWGQGTTVTVSS
VL: QSALTQPRSVSGSPGQSVTISCTGTSSDVGSYNLVSWYQQHPGKAPKLMIYEVNKRPSGVPDRFSGSKSGATASLTISGLQAEDEADYYCVSYAGTANVFGTGTKVTVL
notes: IgG1 format; also called ATL_6205
B14: ATL_0006374 (antibody, V domains shown)
VH: EVQLVESGGGLVKPGGSLRLSCAASGFTFNKAWMSWVRQAPGKGLEWVGRIKSGIDAGTTDYAAPVKGRFTISRDDSKNTLYLQMNSLKTEDTAVYWCVPPPYYYYYGLDVWGQGTTVTVSS
VL: QSALTQPRSVSGSPGQSVTISCTGTSSDVGSYNLVSWYQQHPGKAPKLMIYEVNKRPSGVPDRFSGSKSGATASLTISGLQAEDEADYYCVSYGGTENVFGTGTKVTVL
notes: also called ATL_6374; ATL 6374
B15: ATL_0006204 (antibody, V domains shown)
VH: EVQLVESGGGLVKPGGSLRLSCAASGFTFNKAWMSWVRQAPGKGLEWVGRIKSGIDAGTTDYAAPVKGRFTISRDDSKNTLYLQMNSLKTEDTAVYYCIPPPYYYYYGLDVWGQGTTVTVSS
VL: QSALTQPRSVSGSPGQSVTISCTGTSSDVGSYNLVSWYQQHPGKAPKLMIYEVNKRPSGVPDRFSGSKSGATASLTISGLQAEDEADYYCVSFAGTANVFGTGTKVTVL
notes: expressed in IgG1 format; also called ATL_6204
B16: ATL_0006376 (antibody, V domains shown)
VH: EVQLVESGGGLVKPGGSLRLSCAASGFTFNKAWMSWVRQAPGKGLEWVGRIKSGIDAGTTDYAAPVKGRFTISRDDSKNTLYLQMNSLKTEDTAVYYCVPPPFYYYYGLDVWGQGTTVTVSS
VL: QSALTQPRSVSGSPGQSVTISCTGTSSDVGSYNLVSWYQQHPGKAPKLMIYEVNKRPSGVPDRFSGSKSGATASLTISGLQAEDEADYYCVSYGGTENVFGTGTKVTVL
notes: also called ATL_6376
B17: ATL_0006200 (antibody, V domains shown)
VH: EVQLVESGGGLVKPGGSLRLSCAASGFTFNKAWMSWVRQAPGKGLEWVGRIKSGIDAGTTDYAAPVKGRFTISRDDSKNTLYLQMNSLKTEDTAVYYCVPPPYYYYYGLDVWGQGTTVTVSS
VL: QSALTQPRSVSGSPGQSVTISCTGTSSDVGSYNLVSWYQQHPGKAPKLMIYEVNKRPSGVPDRFSGSKSGATASLTISGLQAEDEADYYCGSYAGTANVFGTGTKVTVL
notes: expressed in IgG1 format; also called ATL_6200
B18: ATL_0006199 (antibody, V domains shown)
VH: EVQLVESGGGLVKPGGSLRLSCAASGFTFNKAWMSWVRQAPGKGLEWVGRIKSGIDAGTTDYAAPVKGRFTISRDDSKNTLYLQMNSLKTEDTAVYWCSPPPYYYYYGLDVWGQGTTVTVSS
VL: QSALTQPRSVSGSPGQSVTISCTGTSSDVGSYNLVSWYQQHPGKAPKLMIYEVNKRPSGVPDRFSGSKSGATASLTISGLQAEDEADYYCGSYAGTANVFGTGTKVTVL
notes: expressed in IgG1 format; also called ATL_6199

Key:
[1] = target: T1, Mutant Human HTT Exon 1 48Q (GST) (human); assay: HTT sandwich ELISA
T1 construct: recombinant His- and GST-tagged fusion; also called HTT Exon 1 Q48; 48Q HTT Exon-1
T1 sequence (chain, as listed by the source mutant limits assumed): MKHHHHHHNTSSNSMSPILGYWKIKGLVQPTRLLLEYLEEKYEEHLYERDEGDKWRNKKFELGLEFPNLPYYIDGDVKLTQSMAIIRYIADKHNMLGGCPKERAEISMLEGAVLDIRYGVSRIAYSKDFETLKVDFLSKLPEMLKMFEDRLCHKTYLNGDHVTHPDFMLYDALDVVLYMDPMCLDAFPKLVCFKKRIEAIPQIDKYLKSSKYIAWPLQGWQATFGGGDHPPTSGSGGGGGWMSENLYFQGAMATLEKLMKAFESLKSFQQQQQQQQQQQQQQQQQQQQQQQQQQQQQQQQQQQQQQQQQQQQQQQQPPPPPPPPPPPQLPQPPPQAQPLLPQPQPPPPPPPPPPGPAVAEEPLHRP

[2] = target: T1, Mutant Human HTT Exon 1 48Q (GST); assay: HTT sandwich ELISA, experiment 2 (400 nM starting concentration)
[3] = target: T1, Mutant Human HTT Exon 1 48Q (GST); assay: HTT sandwich ELISA, experiment 1 (133 nM starting concentration)
[4] = target: T2, biotinylated GYSLPQPQPPPPPPPPPP peptide (also: biotinylated, position not given here); assay: BLI (Octet), biotinylated peptide on streptavidin biosensor
T2 construct: also called HTT exon1 in the form of biotinylated peptide
T2 peptide: GYSLPQPQPPPPPPPPPP

[5] = target: T1, Mutant Human HTT Exon 1 48Q (GST); assay: ELISA
[6] = target: T1, Mutant Human HTT Exon 1 48Q (GST); assay: HTT sandwich ELISA; remark: listed apart in the source
human lysozyme = target: T3, human lysozyme (human, UniProt P61626 19-148); assay: direct ELISA
T3 sequence (looked up): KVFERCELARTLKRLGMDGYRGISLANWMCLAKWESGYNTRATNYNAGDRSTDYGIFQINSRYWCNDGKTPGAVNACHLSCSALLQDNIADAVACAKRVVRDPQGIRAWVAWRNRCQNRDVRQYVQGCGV

| Binder | EC50 [2] [nM] | EC50 [3] [nM] | binding result [4] | further results |
| --- | --- | --- | --- | --- |
| B1 | – | – | – | EC50 [1]: 10.1 nM |
| B2 | – | – | – | EC50 [1]: 11.1 nM |
| B3 | 14.7 | 21.1 | binds | – |
| B4 | – | – | – | binding result [5]: binds |
| B5 | – | – | – | EC50 [1]: 9.2 nM |
| B6 | 14 | 19.8 | binds | – |
| B7 | – | – | – | EC50 [6]: 20.1 nM |
| B8 | – | – | – | EC50 [6]: 38.9 nM |
| B9 | 8.72 | 8.91 | binds | – |
| B10 | – | – | – | binding result (human lysozyme): no binding (tested: less than 1 µM); EC50 [6]: 23.8 nM |
| B11 | 13.5 | – | binds | – |
| B12 | – | – | – | EC50 [1]: 7.31 nM |
| B13 | 16.4 | 13.4 | binds | – |
| B14 | – | – | binds | EC50 [6]: 31.1 nM |
| B15 | 12.2 | 16.2 | binds | – |
| B16 | – | – | – | binding result (human lysozyme): no binding (tested: less than 1 µM); EC50 [6]: 11.5 nM |
| B17 | 9.75 | 12.8 | binds | – |
| B18 | 13.1 | 15 | binds | – |

Reference: patent US20260209320A1 (ALCHEMAB THERAPEUTICS, published 2026)
